Experimental findings from patent US20260217825A1 (CHIMAGEN BIOSCIENCES, published 2026) are described below.

Experiment [1] addresses T1, recombinant CD3e antigen (Human CD3 epsilon Protein, His Tag, ACRO Cat: CDE-H5223) (human, UniProt P07766 23-126).
T1 construct: Bought protein; also called CD3 antigen; not shown: His tag
Put plainly: BLI (Octet R8), recombinant CD3e antigen. The text has this:
(§1) The recombinant CD3e antigen (Human CD3 epsilon Protein, His Tag, ACRO Cat: CDE-H5223) and recombinant GPRC5D antigen (Human GPRC5D protein-Flag-His tag (51.8KD) ACRO Cat: GPD-H52D3) were immobilized on a chip and detected by Octet® R8 biomolecular interaction analysis system.
A general note: BLI is a label-free optical method that tracks binding on a fibre tip over time.

Experiment [2] deals with T2, recombinant GPRC5D antigen (Human GPRC5D protein-Flag-His tag (51.8KD) ACRO Cat: GPD-H52D3) (human, UniProt Q9NZD1 1-345, limits assumed).
T2 construct: Bought protein; also called CPRG5D; not shown: Flag-His tag
Put plainly: BLI (Octet R8), recombinant GPRC5D antigen.
Source text: as §1

Experiment [3] concerns the target T3, human GPRC5D on cells (human, UniProt Q9NZD1 1-345).
T3 construct: whole, on cells; Either overexpressed in HEK293, CHOS or HEK293T cells, or naturally expressed on human myeloma cell lines; also called hGPRC5D; HEK293-hGPRC5D
Put plainly: cell-based binding assay on HEK293T-hGPRC5D. The protocol:
(§2) HEK293T-hGPRC5D or HEK293T-cynoGPRC5D cells in logarithmic growth phase were inoculated into a 96-well culture plate, and the antibodies at different concentrations (200, 66.7, 22.22, 7.41, 2.47, 0.82, 0.27, 0.09, 0.03, and 0.01 nM) was added. 2 duplicate wells were set for each concentration and a negative control (PBS) well was also set. The cells were incubated at 25° C. for about 60 minutes and then developed and detected. The raw data of the test was the difference between the detection wavelength and the reference wavelength. A dose-response curve was fitted using statistical software, based on OD value and the logarithmic value of the concentration, from which the EC50 was obtained.

The target of experiment [4] is T4, cynomolgus monkey GPRC5D on HEK293T cells (cynomolgus monkey).
T4 construct: whole, on cells; also called HEK293T-cynoGPRC5D; Cynomolgus GPRC5D
Put plainly: cell-based binding assay on HEK293T-cynoGPRC5D. The protocol:
as §2

In experiment [5] the target is T2, recombinant GPRC5D antigen (Human …). Put plainly: BLI (Octet R8), recombinant GPRC5D antigen. The text has this:
The recombinant GPRC5D antigen (Human GPRC5D protein-Flag-His tag (51.8KD) ACRO Cat: GPD-H52D3) was immobilized on a chip and detected by Octet® R8 biomolecular interaction analysis system.
This is another data set of the same source.

Experiment [6] concerns the target T3, human GPRC5D on cells. Put plainly: flow cytometry, MM.1R cell binding. As to the method: (§3) After the cells were digested with TrypLE, the digested cells were centrifuged and resuspended in a DPBS solution containing 2% BSA (FACS buffer, 4° C.), added into a 96-well plate with a U-shaped bottom in an amount of 5× 10⁵ cells/100 μl/well, added with antibody diluted over concentration gradient, and incubated at 4° C. for 1 hr. After centrifugation, the supernatant was discarded. 100 μl of anti-human IgG Fc-APC secondary antibody was added to each well and incubated at 4° C. for 1 hr. Then the cells were washed once with a FACS buffer, and resuspended in 200 μl FACS buffer. The fluorescence signal was read on BD CantoII.
In general terms: A flow cytometer gives signals particle by particle.

The target of experiment [7] is T3, human GPRC5D on cells. Put plainly: flow cytometry, NCI-H929 cell binding. As to the method: as §3
Experiment [8] addresses T3, human GPRC5D on cells. Put plainly: flow cytometry, RPMI-8226 cell binding. As to the method: as §3
For experiment [9], the target named is T3, human GPRC5D on cells. Put plainly: FACS on MM.1R cells (natural GPRC5D), anti-human IgG Fc-APC secondary; fit table under the curves. As to the method:
as §3

Experiment [10] concerns the target T3, human GPRC5D on cells. Put plainly: FACS on NCI-H929 cells (natural GPRC5D), anti-human IgG Fc-APC secondary; fit table under the curves. The protocol:
as §3

The target in experiment [11] is T3, human GPRC5D on cells. Put plainly: FACS on RPMI-8226 cells (natural GPRC5D), anti-human IgG Fc-APC secondary; fit table under the curves. As to the method: as §3
The target of experiment [12] is T3, human GPRC5D on cells. Put plainly: FACS on CHOS cells expressing hGPRC5D (sheet title: CHOS-hGPRC5D sorted), anti-human IgG Fc-APC secondary; fit table under the curves. The protocol:
(§4) After centrifugation, […] and CHOS-hGPRC5D cells expressing hGPRC5D were resuspended in a DPBS solution (FACS buffer, 4° C.) containing 2% BSA, added to a 96-well plate with a U-shaped bottom in an amount of 5×10⁵ cells/100 μl/well, added with antibody diluted over concentration gradient, and incubated at 4° C. for 1 hr. After centrifugation, the supernatant was discarded. 100 μl of anti-human IgG Fc-APC secondary antibody was added to each well and incubated at 4° C. for 1 hr. Then the cells were washed once with a FACS buffer, and resuspended in 200 μl FACS buffer. The fluorescence signal was read on BD CantoII.

Experiment [13] deals with T3, human GPRC5D on cells. Put plainly: FACS on HEK293 cells expressing hGPRC5D (sheet title: 293T-hGPRC5D sorted), anti-human IgG Fc-APC secondary; fit table under the curves. The protocol:
as §4

For experiment [14], the target named is T3, human GPRC5D on cells. Put plainly: FACS on CHOS cells expressing hGPRC5D (sheet title: CHOS-hGPRC5D sorted), anti-human IgG Fc-APC secondary; fit table under the curves, unit from the axis Log Conc.(ug/ml). As to the method: as §4
In experiment [15] the target is T3, human GPRC5D on cells. Put plainly: FACS on HEK293 cells expressing hGPRC5D (sheet title: 293T-hGPRC5D sorted), anti-human IgG Fc-APC secondary; fit table under the curves, unit from the axis Log Conc.(ug/ml). The protocol: as §4

Substitutions are numbered along the chain they refer to. Names may count otherwise. Read-outs that look alike come from different tables or passages of the source.

T2 sequence (Q9NZD1 whole entry): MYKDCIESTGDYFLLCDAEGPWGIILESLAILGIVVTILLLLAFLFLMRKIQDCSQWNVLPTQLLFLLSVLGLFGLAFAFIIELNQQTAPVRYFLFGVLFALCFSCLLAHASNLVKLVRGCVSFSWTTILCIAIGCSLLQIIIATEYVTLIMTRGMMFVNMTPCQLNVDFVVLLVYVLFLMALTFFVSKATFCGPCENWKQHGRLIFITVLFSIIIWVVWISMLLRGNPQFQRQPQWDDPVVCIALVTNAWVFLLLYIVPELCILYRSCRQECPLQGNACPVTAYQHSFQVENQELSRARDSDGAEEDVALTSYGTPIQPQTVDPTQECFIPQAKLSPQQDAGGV
T3 sequence (Q9NZD1 whole entry): as above
T1 sequence (P07766 23-126 limits assumed): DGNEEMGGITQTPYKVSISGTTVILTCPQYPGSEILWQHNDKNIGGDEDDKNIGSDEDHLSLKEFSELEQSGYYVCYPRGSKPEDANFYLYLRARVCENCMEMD

B1: humanized CD3xGPRC5D bispecific antibody 22A8 (Structure D) (bispecific antibody)
heavy 1: QVQLVQSGAEVKKPGSSVKVSCRASGYPFTNYWMHWVRQAPGQGLEWIGEINPSNGRTNYNEKFKSRATLTLDKLTSTAYMELSSLTSEDTALYYCARGFAYWGQGTLVTVSSASTKGPSVFPLAPSSKSTSGGTAALGCLVKDYFPEPVTVSWNSGALTSGVHTFPAVLQSSGLYSLSSVVTVPSSSLGTQTYICNVNHKPSNTKVDKKVEPKSCDKTHTCPPCPAPPVAGPSVFLFPPKPKDTLMISRTPEVTCVVVDVSQEDPEVKFNWYVDGVEVHNAKTKPREEQFNSTYRVVSVLTVLHQDWLNGKEYKCKVSNKGLPSSIEKTISKAKGQPREPQVYTLPPSRDELTKNQVSLSCAVKGFYPSDIAVEWESNGQPENNYKTTPPVLDSDGSFFLVSKLTVDKSRWQQGNVFSCSVMHEALHNRFTQKSLSLSP
light: EIVLTQSPGTLSLSPGERATLSCSASSSVSFMHWYQQKPGQAPRRWIYDTTKLASGIPDRFSGSGSGTDYTLTISRLEPEDFAVYYCQQWNSHPLTFGQGTTVEIKRTVAAPSVFIFPPSDEQLKSGTASVVCLLNNFYPREAKVQWKVDNALQSGNSQESVTEQDSKDSTYSLSSTLTLSKADYEKHKVYACEVTHQGLSSPVTKSFNRGEC
heavy 2: EVQLVESGGGLVQPGGSLRLSCAASGFTFSTYAMNWVRQAPGKGLEWVGRIRSKYNNYATYYADSVKGRFTISRDDSKNSLYLQMNSLRAEDTAVYYCVRHGNFGTSYVSWFAYWGQGTLVTVSSASTKGPSVFPLAPSSKSTSGGTAKLGCLVKDYFPEPVTVSWNSGALTSGVHTFPACLQSSGLYSLSSVVTVPSSSLGTQTYICNVNHKPSNTKVDKKVEPKSSDKTHTCPPCPAPELLAGPDVFLFPPKPKDTLMISRTPEVTCVVVDVSHEDPEVKFNWYVDGVEVHNAKTKPREEQYNSTYRVVSVLTVLHQDWLNGKEYKCKVSNKALPLPEEKTISKAKGQPREPQVYTLPPSRDELTKNQVSLWCLVKGFYPSDIAVEWESNGQPENNYKTTPPVLDSDGSFFLYSKLTVDKSRWQQGNVFSCSVMHEALHNHYTQKSLSLSP
chain: QVQLVQSGAEVKKPGSSVKVSCRASGYPFTNYWMHWVRQAPGQGLEWIGEINPSNGRTNYNEKFKSRATLTLDKLTSTAYMELSSLTSEDTALYYCARGFAYWGQGTLVTVSSASTKGPSVFPLAPSSKSTSGGTAALGCLVKDYFPEPVTVSWNSGALTSGVHTFPAVLQSSGLYSLSSVVTVPSSSLGTQTYICNVNHKPSNTKVDKKVEPKSCDGGGGSGGGGSQAVVTQEPSLTVSPGGTVTLTCRSSTGAVTTSNYANWVQQKPGQAPRGLIGGTNKRAPWTPARFSGSLLGGKAALTLSGAQAEDEADYYCALWYSNLWVFGGGTKLTVLRTVAAPSVDIFPPSDEQLKSGTASVVCLLNNFYPREAKVQWKVDNALQSGNSCESVTEQDSKDSTYSLSSTLTLSKADYEKHKVYACEVTHQGLSSPVTKSFNRGES
notes: First polypeptide: VH1(GPRC5D, humanized)-CH1a-Fc; Second and fifth polypeptides are identical: VL(GPRC5D, humanized)-CLa; Third polypeptide: VH2(CD3)-CH1b-Fc; Fourth polypeptide: VH3(GPRC5D, humanized)-CH1a-linker-VL2(CD3)-CLb; Fc mutations are knob-into-hole (T366W; Y407V, T366S, L368A)
B1: in [1], the Kd (as a rule, the equilibrium constant for the complex coming apart) was found to be 30 nM; the koff (usually a measure of how fast the partners let go of each other) is 0.00381 s⁻¹; the association rate constant (kon) (usually the second-order rate constant of association) turned out to be 127000 M⁻¹ s⁻¹. For the same molecule, in experiment [2], the Kd worked out at 9.47 nM, the koff stood at 0.000596 s⁻¹ and the kon is 62900 M⁻¹ s⁻¹. Moreover, the response with human GPRC5D on cells [3] was half-maximal at 3.86 nM (EC50). For the same molecule, the response in experiment [4] was half-maximal at 10.1 nM (EC50).

B2: humanized antibody 22Mono5UQY (antibody, human IgG1, V domains shown)
VH: QVQLQESGPGLVKPSETLSLTCTASGYPFTNYWMHWVRQPPGKGLEWIGEINPSNGRTNYNEKFKSRATLSLDKSKNQASLNLDSVSAADTAIYYCARGFAYWGKGSTVTVSS
VL: AIQLTQSPSSLSASVGDRVTITCSASSSVSFMHWYQQKPGKAPKRWIYDTTKLASGVPSRFSGSGSGTDYTFTISSLQPEDIATYYCQQWNSHPLTFGPGTKVDIK
notes: also called 22MonoSUQY
B2: in experiment [5], the Kd worked out at 5.67 nM, the koff turned out to be 0.000489 s⁻¹ and the kon is 86200 M⁻¹ s⁻¹.

B3: humanized antibody 22Mono5JO4 (antibody, human IgG1, V domains shown)
VH: QVQLVQSGAEVKKPGSSVKVSCRASGYPFTNYWMHWVRQAPGQGLEWIGEINPSNGRTNYNEKFKSRATLTLDKLTSTAYMELSSLTSEDTALYYCARGFAYWGQGTLVTVSS
VL: EIVLTQSPGTLSLSPGERATLSCSASSSVSFMHWYQQKPGQAPRRWIYDTTKLASGIPDRFSGSGSGTDYTLTISRLEPEDFAVYYCQQWNSHPLTFGQGTTVEIK
In the case of B3, in [5], the Kd amounted to 0.787 nM, the koff came out at 0.000119 s⁻¹ and the kon was found to be 151000 M⁻¹ s⁻¹.

B4: humanized antibody 22Mono3L7F (antibody, human IgG1, V domains shown)
VH: EVTLKESGPVLVKPTETLTLTCTASGYPFTNYWMHWVRQPPGKALEWIGEINPSNGRTNYNEKFKSRATLSLDKSKSQAVLTMTNMDPVDTATYYCARGFAYWGQGTLVTVSS
VL: B3 VL with G9A, D59A, R76S, T102K, V103L
notes: also called 22monoO3L7
As for B4, in [5], the Kd turned out to be 25.6 nM, the koff was found to be 0.002 s⁻¹ and the kon was 78000 M⁻¹ s⁻¹.

B5: humanized antibody 22Mono4DN4 (antibody, human IgG1, V domains shown)
VH: ELVQSGAEVKKPGSSVKVSCKASGYPFTNYWMHWVRQAPGQGLEWIGEINPSNGRTNYNEKFKSRATLTLDKSTSTAYMELSSLRSEDTAVYYCARGFAYWGQGTLVTVSS
VL: B3 VL with G9A, I57V, D59A, R76S, T102K
Take B5: in [5], the Kd stood at 16.9 nM, the koff was determined as 0.00114 s⁻¹ and the kon worked out at 67300 M⁻¹ s⁻¹.

B6: ch-72C7 chimeric recombinant antibody (antibody, V domains shown)
VH: QVQLQQPGAELVKPGTSVKLSCKASGYPFTNYWMHWVRQRPGQGLEWIGEINPSNGRTNYNEKFKSLATLTLDKSSSTAYMHLNSLTSEDSAVYYCARGFAYWGQGTLVTVSA
VL: QIVLSQFPAIMSASPGEKVTMTCSASSSVSFMHWYQQKSGTSPKRWIYDTTKLASGVPARFTGSGSGTSYSLTISSMEAEDAATYYCQQWNSHPLTFGPGTKLELK
notes: also called ch-72C7 antibody; antibody ch-72C7
As to B6, the EC50 (usually the concentration giving half of the maximal effect) in the experiment with human GPRC5D on cells [6] worked out at 0.62 µg/mL; with human GPRC5D on cells [7], 0.485 µg/mL; in the experiment with human GPRC5D on cells [8], 0.916 µg/mL; with human GPRC5D on cells [14], 1.58 µg/mL; with human GPRC5D on cells [15], 0.49 µg/mL. The LogEC50 in the experiment with human GPRC5D on cells [9] is -0.207 log(ug/ml); with human GPRC5D on cells [10], -0.314 log(ug/ml); in the experiment with human GPRC5D on cells [11], -0.0379 log(ug/ml); in the experiment with human GPRC5D on cells [12], 0.198 log(ug/ml); with human GPRC5D on cells [13] it was -0.309 log(ug/ml).
